In US20260234242A1 (HAINAN SIMCERE ZAIMING PHARMACEUTICAL, published 2026):

T1: his-tagged human CDH6 extracellular region protein (hCDH6 ECD-his) (human, UniProt P55285 19-615)
T1 construct: also called Human CDH6-his; hCDH6-his; not shown: his tag
T1 sequence: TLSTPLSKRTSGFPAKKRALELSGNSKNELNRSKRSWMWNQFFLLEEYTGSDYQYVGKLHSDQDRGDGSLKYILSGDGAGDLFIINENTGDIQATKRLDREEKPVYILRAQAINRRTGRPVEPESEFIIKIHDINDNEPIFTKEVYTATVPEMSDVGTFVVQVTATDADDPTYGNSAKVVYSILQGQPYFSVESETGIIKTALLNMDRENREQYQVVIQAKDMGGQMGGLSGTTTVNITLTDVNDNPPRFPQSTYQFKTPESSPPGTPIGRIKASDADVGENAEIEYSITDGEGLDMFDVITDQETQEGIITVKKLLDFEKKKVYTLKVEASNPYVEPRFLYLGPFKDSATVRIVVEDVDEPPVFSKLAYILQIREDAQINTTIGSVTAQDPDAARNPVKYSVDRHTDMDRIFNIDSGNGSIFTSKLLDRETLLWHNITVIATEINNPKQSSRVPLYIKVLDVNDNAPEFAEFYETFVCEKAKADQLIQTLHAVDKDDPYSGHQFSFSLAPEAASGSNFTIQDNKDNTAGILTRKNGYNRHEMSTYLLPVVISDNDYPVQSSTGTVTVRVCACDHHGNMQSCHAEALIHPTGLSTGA

B1: CHI-CDH6-2 (antibody, human IgG1, kappa, V domains shown)
VH: EVQLQQSGPELVKPGASVRISCKASGYTFTDYYMNWVKQSHGKSLEWIGDIDPNNANTTYNQKFKGKATLTVDKSSSTAYMELRSLTSEDSAVYSCASFGYDVEWFGYWGQGTLVTVSA
VL: QIVLTQSPALMSASPGEKVTMTCSASSSVSYMYWYQQKPRSSPKPWIYLTSNLASGVPARFSGSGSGTSYSLTISSMEAEDAATYYCQQWSSNPFTFGSGTKLEIKR
notes: also called chimeric antibody of murine CDH6-2
B2: CHI-CDH6-6 (antibody, human IgG1, kappa, V domains shown)
VH: EVQLQQSGPELVKPGDSVKMSCKASGYTFTDYYMAWVRQSHRKSLEWIGYIFPNSGGTDYSQKFKGKATLTVDKSSSTVYMELHSLTSEDSAVYYCARELGADYGDYYAMDHWGQGTSVSVSS
VL: DIQMTQSPASLSASVGETVTITCRASENIDSYLAWYQQKQGKSPQLLVYSATLLADGVPSRFSGSGSGTQYSLKINSLKSEDVARYYCQHYYRTPPTFGSGTKLEIKR
notes: also called CHI-hCDH6-6; chimeric antibody of murine CDH6-6
B3: CHI-CDH6-8 (antibody, human IgG1, kappa, V domains shown)
VH: EVQLQQSGPELVKPGDSVKMSCKASGYTFTDYYMAWIKQNHGKSLEWIGYIYPNNGGTDYNQKFRGKATLTVDKSSSAAYMELHSLTSEDSAVYYCAREIGTLYGDYYAMDYWGQGTSVTVSS
VL: DIQMTQSPASLSASVGETVTITCRASENIDSYLAWYQQKQGKSPQLLVYTATLLADGVPSRFSGSGSGTQYSLKINSLQSEDVARYYCQHYYSTPPTFGSGTKLEIKR
notes: also called chimeric antibody of murine CDH6-8
B4: CHI-CDH6-9 (antibody, human IgG1, kappa, V domains shown)
VH: QVQLQQPGAELVKPGASVKLSCKASGYTFTGYWMHWVRQRPGQGLEWIGEINPNNGGTNCNEQFKNKATLTVDKSSSTAYMQLSSLTSEDSAVFYCTISFGNYLFFDVWGAGTTVTVSS
VL: DIQMTQSPASLAASVGETITITCQASENIYFSLAWYQQKQGKSPQLLIYNANTLEDGVPSRFVGSGSGTQYSMKINSIQPEDTATYFCDQTYDFPWTFGGGTKLEIKR
notes: also called chimeric antibody of murine CDH6-9
B5: CHI-CDH6-10 (antibody, human IgG1, kappa, V domains shown)
VH: QVQLQQPGAELVKPGTSVKMSCKASGYTFTSDWIAWVKQRPGQGLEWIGDIYPGSGRTHNNEKFNFKATLTVDTSSNTAYMQLSSLTSEDSAVYFCARPMLGRFDYWGQGTTLTVSS
VL: DIVLTQSPASLAVSLGQRATISCRASESVSIHGTHLMHWYQQKPGQPPKLLIYAASNLESGVPARFSGSGSETDFTLNIHPVEEEDAATYFCQQSFEDPFTFGSGTKLEIKR
notes: also called chimeric antibody of murine CDH6-10
B6: CHI-CDH6-11 (antibody, human IgG1, kappa, V domains shown)
VH: QIQLQQSGPELVKPGASVRISCKASGYTFTDYYITWVKLRPGQGLEWIGWIYPGSVNIKYNEKFKGKATLTVDTSSSTAYMQLNSLTSEDSAVYFCARGGYSWFPYWGQGTLVTVSA
VL: NIVMTQSPKSMSMSVGERVTLSCKASENVHTYVSWYQQKPEQSPKLLFYGASTRNTGVPDRFTGSGSATDFTLTISSVQAEDLADYYCGQSYSYPYTFGSGTKLEIKR
notes: also called chimeric antibody of murine CDH6-11
B7: CHI-CDH6-13 (antibody, human IgG1, kappa, V domains shown)
VH: DVQLQESGPGLVKPSQSLSLTCSVTGYSITKDSYWNWIRQFPGSKLEWMGFISYDGSRHYNPSLKNRISITRDTSKNQFFLQLNSVTTEDTATYYCARRDYADYWGQGTTLTVSS
VL: QIVLTQSPALMSAFPGEKVTMTCSATSSVSYIYWYQQKPRSSPKPWIYLTSNLASGVPARFSGSGSGTSYSLTINSLEAEDAATYYCQQWSSIPYTFGGGTKLEIKR
notes: also called chimeric antibody of murine CDH6-13

biological target: T1, his-tagged human CDH6 extracellular …; experiment: SPR Biacore 8K, antibody captured on Protein A
Method: The affinity of the antibody for the antigen was determined by a multi-cycle kinetic method using a BIAcore 8K instrument. In each cycle, the antibody to be tested was captured using a Protein A chip (purchased from GE, Cat. No. 29-1275-56), and then the antigen human CDH6 protein (hCDH6-his, conventionally synthesized) was injected. The association and dissociation processes of the antibody with the antigen protein were recorded, and finally, the chip was regenerated using Glycine pH 1.5, wherein the mobile phase was HBS-EP+ (10 mM HEPES, 150 mM NaCl, 3 mM EDTA, 0.05% surfactant P20, and 1 mM Ca), the flow rate was 30 μL/min, the association time was 240 s, the dissociation time was 300 s, the regeneration time was 30 s, the detection temperature was 25° C., and the antigen concentration was 31.25-1000 nM. The data were analyzed using Biacore 8K analysis software (version No. 2.0) based on the 1:1 binding model to fit the antibody-antigen binding kinetic parameters, including the association rate constant ka, the dissociation rate constant kd, and the equilibrium dissociation constant KD. The affinity values of the control antibody DS-H01L02 were undetectable. Antibodies not shown in the table had undetectable affinity values.

In order of rising Kd:
1. B1  3.68 nM
2. B6  5.72 nM
3. B5  20.3 nM
4. B3  31.2 nM
5. B2  58.6 nM
6. B7  78.1 nM
7. B4  138 nM

In order of rising koff:
1. B6  0.000201 s⁻¹
2. B4  0.00159 s⁻¹
3. B7  0.00184 s⁻¹
4. B1  0.00185 s⁻¹
5. B5  0.00364 s⁻¹
6. B3  0.00378 s⁻¹
7. B2  0.00508 s⁻¹

In order of falling kon:
1. B1  503000 M⁻¹ s⁻¹
2. B5  179000 M⁻¹ s⁻¹
3. B3  121000 M⁻¹ s⁻¹
4. B2  86800 M⁻¹ s⁻¹
5. B6  35200 M⁻¹ s⁻¹
6. B7  23600 M⁻¹ s⁻¹
7. B4  11600 M⁻¹ s⁻¹
